Test results reported in the supplement of paper PMC7125110.
± gives the standard error. For part of these data: Variants at the floor of the assay were thinned out.

B1: glmS ribozyme (parent)
chain: AUAAAAGCGCCAGAACUACAGAAAUGUAGUUGACGAGGAGGAGGUUUAUCGAAUUUUCGGCGGAUGCCUCCAAA

Key:
Conditions in all cases: with glucosamine-6-phosphate
glucosamine-6-phosphate [1] = variants of: B1; assay: kcat; higher = faster cleavage; RNA array
Procedure, shortened: (§1)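 Sequenced MiSeq chips were the platform: E. coli RNA polymerase transcribed barcoded ribozyme variants on them in situ, and a hybridised Cy3 probe tracked these at 37 °C. After glucosamine-6-phosphate (40 μM to 10 mM) in HEPES/KCl/Mg(OAc)2 buffer was flowed in, tiles were imaged over ~14 h. Signals normalised to baseline and to non-cleaving reference variants were reduced to per-tile medians and fit to one- or two-exponential decays to obtain kobs. kcat and KM were derived through weighted Michaelis–Menten fits across concentrations.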

glucosamine-6-phosphate [2] = variants of: B1; assay: KM; higher = weaker cofactor use; RNA array
Procedure, shortened: as §1

glucosamine-6-phosphate [3] = variants of: B1; assay: self-cleavage kobs at 640 uM GlcN6P; higher = faster cleavage; RNA array
Procedure, shortened: as §1

glucosamine-6-phosphate [4] = variants of: B1; assay: self-cleavage kobs at 2500 uM GlcN6P; higher = faster cleavage; RNA array
Procedure, shortened: as §1

glucosamine-6-phosphate [5] = variants of: B1; assay: self-cleavage kobs at 10000 uM GlcN6P; higher = faster cleavage; RNA array
Procedure, shortened: as §1

glucosamine-6-phosphate [6] = variants of: B1; assay: self-cleavage kobs at 160 uM GlcN6P; higher = faster cleavage; RNA array
Procedure, shortened: as §1

glucosamine-6-phosphate [7] = variants of: B1; assay: self-cleavage kobs at 40 uM GlcN6P; higher = faster cleavage; RNA array
Procedure, shortened: as §1

Variant | kcat (glucosamine-6-phosphate [1]) [s⁻¹] | KM (glucosamine-6-phosphate [2]) [µM] | self-cleavage kobs at 640 uM GlcN6P (glucosamine-6-phosphate [3]) [s⁻¹] | self-cleavage kobs at 2500 uM GlcN6P (glucosamine-6-phosphate [4]) [s⁻¹] | self-cleavage kobs at 10000 uM GlcN6P (glucosamine-6-phosphate [5]) [s⁻¹] | self-cleavage kobs at 160 uM GlcN6P (glucosamine-6-phosphate [6]) [s⁻¹] | self-cleavage kobs at 40 uM GlcN6P (glucosamine-6-phosphate [7]) [s⁻¹]
AUAAAAGCGCCAGAACUACAGAAAUGUAGUUGACGAGGAAGAGGUUUAUCGGAUUUUCGGCGGAUGCCUCCAAA [G40A A52G] | 0.000342 ± 4.4e-05 | 1490 ± 450 | 0.000102 ± 1.6e-05 | 0.000251 ± 2.8e-05 | 0.000277 ± 3e-05 | – | –
AUAAAAGCGCCAGAACUACAGAAAUGUAGUUGACGAGGAGGAGGUUUAUCGAAUUUUCUGAGGAUGACUCCAAA [G59U C61A C67A] | 1.63e-05 ± 4.2e-06 | – | – | – | – | – | –
AUAAAAGCGCCAGAACUACAGAAAUGUAGUUGCCGCGGAGGAAGUUUAUCGUAUUUUCGGCGGAUGCCUCCAAA [A33C A36C G43A A52U] | < 1e-05 | – | – | – | – | – | –
AUAAAAGCGCCAGAACUACAGAAAUGUAGUUGACGAGGAGGCGGUUUAGCGAAUUUUCGGCGGAUGCCUCCAAA [A42C U49G] | 1.03e-05 ± 3.2e-07 | 512 ± 51 | – | – | – | – | –
AUAAAAGCGCCAGAACUACAGAAAUGUAUUUUACGAGGAGGAGGUUUAUCGAAUUUUCGGCGGAUGCCUCCAAA [G29U G32U] | 0.00125 ± 0.00041 | 8560 ± 4000 | 0.00011 ± 1.5e-05 | 0.000243 ± 3e-05 | 0.000702 ± 7.1e-05 | – | –
AUAAAAGCGCCAGAACUACAGAAAUGUAGUUGACGAGGAGGAGGUUUAUCGAAUUUUUGGAGGAUGCCUCCAAA [C58U C61A] | 6.3e-05 ± 2.6e-05 | – | 0.000108 ± 3.4e-05 | 7.93e-05 ± 1.5e-05 | – | 6.42e-05 ± 1.7e-05 | –
AUAAAAGCGCCAGAACUACAGAAAUGUAGUUGACGAGGAGGAGGUUUAUCGAAUUUUCGGCGGACGGCUCCAAA [U65C C67G] | 6.8e-05 ± 3.8e-06 | – | 5.5e-05 ± 1.4e-05 | – | 6.72e-05 ± 8.1e-06 | – | –
AUAAAAGCGCCAAAACUACAGAAAUGUAGUGGACGAGGAGGAGGUUUAUCGAAUUUUCGGCGGAUGCCUCCAAA [G13A U31G] | 0.000328 ± 7.1e-05 | – | – | 6.35e-05 ± 1.5e-05 | 0.000153 ± 2.2e-05 | – | –
AUAAAAGCGCCAGAACUACAGAAAUGUAGUUGACGAGGAGGAGGUUUAUCGAAUUGUCGGCGGAUGCCUCCAAA [U56G] | 0.04 ± 0.003 | 3170 ± 310 | 0.00628 ± 0.00028 | 0.0168 ± 0.00087 | 0.0313 ± 0.0012 | 0.00186 ± 0.00015 | 0.000527 ± 1.8e-05
AUAAAAGCGCCAGAGCUACAGAAAUGUAGUUGACGAUGAGGAGGUUUAUCGAAUUUUCGGCGGAUGCCUCCAAA [A15G G37U] | 1.02e-05 ± 7.1e-07 | 623 ± 300 | – | – | – | – | < 1e-05
AUAAAAGCGCCAGAUCUACAGAAAUGUAGUUGACGGGGAGGAGGUUUAUCGAAUUUUCGGCGGAUGCCCACAAA [A15U A36G U69C C70A] | 1.84e-05 ± 4.3e-06 | – | – | – | – | – | –
AUAAAAGCGCCAGUACUACAGAAAUGUAGUUGACGAGGAGGAGGUUUAUCGAACUUUCGGCGGAUGUCUCCAAA [A14U U54C C67U] | 0.00203 ± 0.00034 | 1680 ± 410 | 0.000887 ± 0.00023 | 0.00131 ± 0.00025 | 0.00163 ± 0.0003 | 0.000164 ± 2.3e-05 | 5.21e-05 ± 1.9e-05
AUAAAAGCGCCAGAAAUACAGAAAUGUAGUUCACGAGGAGGAGGUUUAUCGAAUUUUCGGCGGAUGCCUCCAAA [C16A G32C] | 9.38e-05 ± 2.3e-06 | 1220 ± 140 | 3.44e-05 ± 1.6e-05 | 5.99e-05 ± 1.7e-05 | 8.41e-05 ± 1e-05 | – | –
AUAAAAGCGCCUGAACUACAGAAAUGUAGUUGACGUGGAGGAGGUUUAUCGAAUUUUCGGCGGAUGCAUCCAAA [A12U A36U C68A] | 1.17e-05 ± 3.8e-06 | – | – | – | – | – | –
AUAAAAGCGCCAGAACUACAGAAAUGUAGUUGACGAGGAGGAGGUUUAUCGAAUUCUCGGCGGUUGCCUCCAAA [U56C A64U] | < 1e-05 | – | < 1e-05 | – | – | – | < 1e-05
AUAAAAGCGCCAGAAUUACAGAAAUGUAGUUGACGAUGAGGAGGUUUAUCGAAUUUUCGGCGGAUGCCUCCAAA [C16U G37U] | < 1e-05 | – | – | – | – | – | < 1e-05
AUAAAAGCGCCAGAACUACAGAAAUGUAGUUAACGAGGAGGAGGUUUAUCGAAUUUUCGGCGGAUGACUCCAAA [G32A C67A] | 0.000956 ± 0.00011 | 2730 ± 630 | 0.000168 ± 3.4e-05 | 0.000586 ± 0.00011 | 0.000728 ± 8.2e-05 | 5.05e-05 ± 1.6e-05 | –
AUAAAAGCGCCAGAACUACAGAAAUGUAGUUGACGAGGAGGAGGUUGAUCGAAUUUUUGGCGGAUGCCUCCAAA [U47G C58U] | 8.14e-05 ± 1.6e-05 | – | – | 3.07e-05 ± 1.2e-05 | 6.32e-05 ± 8.6e-06 | – | –
AUAAAAGCGCCAGAACUACAGAAAUGUAGUUGACGAGGAGGAGGUUUAUUGAAUUUUCGGCGGAUUCCUCCAAA [C50U G66U] | 1.12e-05 ± 2.8e-06 | – | < 1e-05 | – | – | – | –
AUAAAAGCGCCAGAACUACAGAAAUGUAGUUGACGAGGAGGAGGUAUAUCGAAGUUUCGGCGGAUGCCUGCAAA [U46A U54G C70G] | 0.000171 ± 6e-05 | – | 0.000291 ± 6.7e-05 | 0.000305 ± 6.4e-05 | 0.000127 ± 2.9e-05 | 6.23e-05 ± 2e-05 | –
AUAAAAGCGCCAGAAGUACAGAAAUGUAGUUAACGAGGAGGAGGUUUAUCGAAUUUUCGGCGGAUGCCUCCAAA [C16G G32A] | 0.0013 ± 0.00037 | 2870 ± 1300 | 0.0003 ± 5.5e-05 | 0.000434 ± 0.00011 | 0.00115 ± 0.00018 | 7.04e-05 ± 1.7e-05 | –
